Test results taken from US9175053.

Molecular target: ubiquitylated alpha-synuclein(1-17) model peptide 8 (desulfurized ligation product of synthetic Ub-SR 5 and peptide 7), P37840

B1: recombinant human ubiquitin C-terminal hydrolase L3 (protein)
chain: MEGQRWLPLEANPEVTNQFLKQLGLHPNWQFVDVYGMDPELLSMVPRPVCAVLLLFPITEKYEVFRTEEEEKIKSQGQDVTSSVYFMKQTISNACGTIGLIHAIANNKDKMHFESGSTLKKFLEESVSMSPEERARYLENYDAIRVTHETSAHEGQTEAPSIDEKVDLHFIALVHVDGHLYELDGRKPFPINHGETSDETLLEDAIEVCKKFMERDPDELRFNAIALSAA
enzymatic cleavage of isopeptide (hydrolysis followed by C-4 analytical RP-HPLC, 12 hours at 37 C): a complete hydrolysis was achieved
